Tests used:
[1] = biological target: T1, DHT03 chain C (SEQ ID NO: 59); assay: X-ray crystal structure, 3.35 A
T1 chain: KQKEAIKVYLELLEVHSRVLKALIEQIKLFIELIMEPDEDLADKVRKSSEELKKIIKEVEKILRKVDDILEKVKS
Description: Purified DHT03_2arm_A21/B21/C (long) protein at a concentration of 41 mg/mL was used to conduct sitting drop, vapor-diffusion crystallization trials using the JCSG Core I-IV screens (NeXtal Biotechnologies). Crystals of DHT03_2arm_A21/B21/C long grew from drops consisting of 100 nL protein plus 100 nL of a reservoir solution consisting of 2M (NH4)2SO4, 0.1M sodium acetate pH4.6 at 18° C., and were cryoprotected by supplementing the reservoir solution with 2.2M sodium malonate pH5. Native diffraction data was collected at APS beamline APS-23-ID-B, indexed to P1 and reduced using XDS⁴⁸. The structure was phased by molecular replacement using Phaser™. The chain A of a set of ˜49 lowest energy predicted models from Rosetta™ were used as search models. Several of these models gave clear solutions. Chain B and Chain C were fitted manually in Coot™ and rigid body refinement by Phenix™. The following model building and refinement were done by Coot™ and Phenix™.

[2] = biological target: T2, DHT05_3arm_A62/B71/C62 chain C; assay: SEC and SAXS; chains of one ABC heterotrimer
T2 chain: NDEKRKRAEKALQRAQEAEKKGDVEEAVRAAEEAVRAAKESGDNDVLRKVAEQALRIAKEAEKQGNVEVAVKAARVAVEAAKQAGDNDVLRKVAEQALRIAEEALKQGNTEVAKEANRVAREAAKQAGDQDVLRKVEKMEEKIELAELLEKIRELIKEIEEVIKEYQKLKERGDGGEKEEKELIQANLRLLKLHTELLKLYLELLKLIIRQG

[3] = biological target: T3, DHT01-4arm-01 chain C; assay: bicistronic expression, SAXS, negative stain EM; A2B2 ring
T3 construct: also called DHT01-4arm-02 chain C; C2-DHT01-01 chain B
T3 chain: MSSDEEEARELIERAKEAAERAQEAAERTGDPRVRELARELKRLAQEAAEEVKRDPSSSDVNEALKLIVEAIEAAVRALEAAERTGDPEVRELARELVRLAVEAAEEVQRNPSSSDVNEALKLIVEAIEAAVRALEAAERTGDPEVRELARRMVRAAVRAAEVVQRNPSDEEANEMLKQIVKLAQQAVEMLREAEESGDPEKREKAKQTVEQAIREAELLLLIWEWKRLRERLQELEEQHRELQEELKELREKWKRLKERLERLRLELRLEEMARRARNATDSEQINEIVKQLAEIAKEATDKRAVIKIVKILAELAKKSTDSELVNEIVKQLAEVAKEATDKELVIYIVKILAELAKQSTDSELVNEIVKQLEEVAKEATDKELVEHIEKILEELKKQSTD

[4] = biological target: T3, DHT01-4arm-01 chain C; assay: co-expression, pull-downs, SEC, native MS, SAXS; chains of one ABC heterotrimer
[5] = biological target: T4, DHT02 chain C; assay: co-expression, IMAC, SEC, native MS; chains of one ABC heterotrimer
T4 chain: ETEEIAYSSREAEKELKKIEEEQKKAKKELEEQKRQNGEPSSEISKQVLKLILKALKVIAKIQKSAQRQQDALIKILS
From the text: (§1) Genes encoding 85 heterotrimers in a tricistronic expression vector were obtained, and the proteins were expressed in E. coli and purified via IMAC with only one chain having the 6×His-tag. Nine of the designs (FIG. 3a) had monodisperse SEC peaks (FIG. 3b), were almost exclusively ABC by nMS, and had good SAXS fits to the design models (Table 7). […] Eight of the designs are parallel heterotrimers, while DHTO9 is an antiparallel heterotrimer. […] For 3 other designs, only the ABC heterotrimer was determined to form by nMS (when the respective SEC fraction was analyzed) but the heterotrimer SEC peak was preceded by soluble aggregate that would make building with these constructs difficult downstream. We explored the dependence of cooperativity on connectivity between the three chains by changing the positions of the loops across different helices in DHT03, while keeping the rest of the interface intact. […] The ability to sustain alternate loop closures increases the number of heteromeric building blocks available for future nanostructure assembly applications and may enable rigid fusion of functional domains to the different termini available.
(§2) Samples were analyzed by online buffer exchange native mass spectrometry (nMS) to evaluate sample purity and accurately determine oligomeric states⁴². Multiple instruments were used as the analyses were carried out over the duration of the protein design process. The mass spectrometers used for detection were a Q Exactive™ UHMR modified with a surface-induced dissociation device and an Exactive™ Plus EMR modified with a selection quadrupole and a surface-induced dissociation device (Thermo Fisher Scientific)⁴³. The liquid chromatography systems used for the buffer exchange include a Vanquish™ Duo UHPLC and a Dionex™ Ultimate 3000 HPLC (Thermo Fisher Scientific). A heated electrospray ionization source (HESI-II, Thermo Fisher Scientific) with a spray voltage of ˜4 kV was used for ionization.

[6] = biological target: T5, DHT04 chain C; assay: as above
T5 chain: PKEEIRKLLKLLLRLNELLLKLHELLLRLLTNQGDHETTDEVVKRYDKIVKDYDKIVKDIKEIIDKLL
From the text: as §1, §2

[7] = biological target: T6, DHT01 chain C; assay: co-expression, IMAC and Strep-Tactin pull-down, SEC, native MS; chains of one ABC heterotrimer
T6 chain: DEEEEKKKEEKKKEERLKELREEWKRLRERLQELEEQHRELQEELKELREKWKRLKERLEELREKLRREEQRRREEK
From the text: We obtained genes encoding 20 coiled coil designed heterotrimers (DHTs) in a tricistronic E. coli expression vector with one chain having a 6×His-tag and a second chain having Strep-tag II, expressed the proteins, and purified by immobilized metal affinity chromatography (IMAC) and Strep-Tactin pull-down. All designs were soluble and for 6 designs, all three components were observed by liquid chromatography-mass spectrometry (LC-MS) after both pull-down approaches. Of these, 5 eluted as monodisperse peaks by SEC, but only 1 design (DHT01) was an exclusive ABC heterotrimer by native mass spectrometry (nMS) and had good agreement with the design model via small angle X-ray scattering (SAXS) (FIG. 2d, Table 7).
as §2, with “ionization. Protein samples stored in Tris buffer were injected (0.1-2 ug) onto the LC system and exchanged at a flow rate of 100-200 uL*min⁻¹ into 200 mM ammonium acetate (mobile phase) prior to ionization. Buffer exchange columns used include self-packed columns with P6 polyacrylamide gel (Bio-Rad Laboratories) and prototype buffer exchange columns provided by Thermo Fisher Scientific (Sunnyvale, CA). Instrument parameters were optimized to allow for ion transmission while minimizing unintentional ion activation. […]” for “ionization.”

[8] = biological target: T7, DHT06 chain C; assay: co-expression, IMAC, SEC, native MS; chains of one ABC heterotrimer
T7 chain: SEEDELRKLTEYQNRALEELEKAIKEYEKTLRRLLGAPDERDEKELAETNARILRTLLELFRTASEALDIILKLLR
From the text: as §1, §2

[9] = biological target: T8, DHT07 chain C; assay: as above
T8 chain: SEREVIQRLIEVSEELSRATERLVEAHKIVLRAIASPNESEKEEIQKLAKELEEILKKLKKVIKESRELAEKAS
From the text: as §1, §2

B1: DHT03_2arm_A21/B21/C long chain B (designed binder)
chain: SEKEKVEELAQRIREQLPDTELAREAQELADEARKSDDSEALKVVYLALRIVQQLPDTELAREALELAKEAVKSTDSEALKVVELALKIVQQLPDTELAKEALELAKEAVKSTDSEALKVVELALEIVQQLPDTELAKEALKLAKEAVKSTDSEALKVVYLALRIVQQLPDTELAREALELAKEAVKSTDSEQLEVVRLALEIVQLAPDTRLARAALKLAKEAVKSTDQEELKKVKAILRVASEVLKLEEEAKKSQEEVERLKQEVEKASKAGLDHEGDSRIFKKIHDVVTKQIKVILRLIAVYAELVAIIG
B1: binds [1].

B2: DHT05_3arm_A62/B71/C62 chain B (designed binder)
chain: SEVEKRLLEIHRQVAESHRILVEVHEALIEALRGNSEEAKEKLKELVKKLEKIIRQEELLLQLLEALVKALQAKKEGDPELVLEAAKDALRVAEQAAKEGDKEMFKQAAELALWLAKQLVEVASKEGDPELVLEAAKVALRVAELAAKNGDKEVFKKAAESALEVAKRLVEVASKEGDPELVEEAAKVAEEVRKLAKKQGDEEVYEKARETAREVKEELKRVREEK
B2: binds [2].

B3: C2-DHT01-01 chain A (designed binder)
chain: DEEEKLRESLEEQKKRVKEIEREHEEIREALKRLQQSVLRQAVRLAKLGDDSEMIRRIVKDLMQQAIEATDEREVEKIKKAAEELSKNSTDEDLKKQIKAVQELVKAVETVREAKKQGDPKKVLKAAEIAMEVATWAAERNDEMIFKLAAKMAKEVAERLKEVAKKENDSALELAAEAIKAAVEALEAALRTGDPRVRELAKELVRLAKEAAEEATRDSKDSDKNEALKLIVEAIKAAVRALEAAERTGDPEVRELARELVRLAVEAAEEVLRNPSSSDVNRALKLIVRAIEAAVQLLEHAEKSGDPEVRELARELVRRLVEAAEEVQRNPSDEQKNTQLRRLIAKAEVWLLNEEFKEAEKRFRKLQEETKKALEEVEELNQRFEEALEEVERIKRRQK
notes: two copies in the A2B2 ring; ring designs kept a C-terminal His-tag in frame
B3: binds [3].

B4: C2-DHT01-02 chain B (designed binder)
chain: DEEEKLRESLEEQKKRVKEIEREHEEIREALKRLQQSVLRQAVRLAKLGDDSEMIQRIVEDLARQAMEATDDREVEKIEKALDELAKNSTDEELKKVIKVAKTLVRVAKLVKEAEELLRQAKEKGSEEDLEKALRTAEEAAREAKKVLEEAEKAQIAEAALLAVELVVRVAELLLRIAKESGSEEALERALRVAEEAARLAKRVLELAEKQGDPEVALRAVELVVRVAELLLRIAKESGSSEALTRAWRVAIEAFQLAVRVLKLAQKQNDSEVARRATELMKRVAELMERIARESGSSAFKAAAEALEAAARTNDKEVVDLARELARLAIEALEEVERNSKSSDVNRALKLILRAIKAAVQLLEHAEKSGDPEVRELARELVRRLVEAAEEVQRNPSDEQKNTQLRRLIAKAEVWLLNEEFKEAEKRFRKLQEETKKALEEVEELNQRFEEALEEVERIKRRQK
notes: two copies in the A2B2 ring
B4: binds [3].

B5: C2-DHT01-03 chain A (designed binder)
chain: MGDEEEKLRESLEEQKKRVKEIEREHEEIREALKRLQQSVLRQAVRLAKLGDDSRMIASIIRDLVKQALRATDEREQKKIKKALEELAQNATDEALKLLIEAAKSLLRAAEASERGDEEEFRKAAEKALELAKRLVEIAKKQSLPEFVLAAAEIALAVAELAAKNNDSEVLEKALRSAAEVAQRLLEVAEKENNQELVEEAAKILKRALEIVEKAAKKLKERNDQSSDVNRALTLIRRAQEAADQLLEHARKSGDPEVWELAIRLVARLVEAAAKVAANMSDEQQNTQLRRLIAKAEVWLLNEEFKEAEKRFRKLQEETKKALEEVEELNQRFEEALEEVERIKRRQKGGSGWSHPQFEK
notes: two copies in the A2B2 ring
B5: binds [3].

B6: DHT01-4arm-01 chain B (designed binder)
chain: SEQERREKAKEEVRELNEEFKEAEKRFRKLQEETKKALEEVEELNQRFQEALTEVAAKKLALEISRVIKTLKESGSSYEEIAEIVARIVAEIVEALKRSGASEKDIATIVAAIISAVIQTLKESGSSYEVIAEIVARIVAEIVEALKRSGTSEDEIAEIVARVISEVIRTLKESGSSYEVIKEIVQRIVEEIVEALKRSGTSEDEINEIVRRVKSEVERTLKESGSS
notes: Strep-tag II was added to the N-terminus of chain B of DHT01 arms
B6: binds [4].

B7: DHT02 chain B (designed binder)
chain: PQLDKFRDESRYLDKASKEVEDEIKKIEKIIRDADEKSLPEEALQDVVKSVVKVYLKSVKETIKSIELVIELIKVIM
B7: binds [5].

B8: DHT04 chain B (designed binder)
chain: DEELIIYIIELLLKDDELLLKSLEIILRIIQLQLTSKDKDDGTDKIKKLVDESKKILDDSERLAEELRKIEEKLK
B8: binds [6].

B9: DHT01 chain B (designed binder)
chain: SEQERREKAKEEVRELNEEFKEAEKRFRKLQEETKKALEEVEELNQRFEEALEEVERIKRRQK
B9: binds [7].

B10: DHT06 chain B (designed binder)
chain: SEEDELEKAIREQKKALERLKEAIERYEETLKRGKNEKELAKTNAEILKTLLELFKSQLELAEIILKLLR
B10: binds [8].

B11: DHT07 chain B (designed binder)
chain: DREEKLERETEKLEKKIRESQRRMEELRKQIETDPDEKELLEILIRSLRLLEEQLEALRKLNHAAQQLLG
B11: binds [9].
